Reference: patent US20260130997A1 (BEAM THERAPEUTICS, published 2026)

What was measured:
[1] = target: T1, mutant CD45 D1-D2 protein N253G, N255G (Homo sapiens, UniProt P08575 225-394, limits assumed); assay: binding to mutant CD45 D1-D2 protein relative to WT CD45 D1-D2; method not given
T1 chain: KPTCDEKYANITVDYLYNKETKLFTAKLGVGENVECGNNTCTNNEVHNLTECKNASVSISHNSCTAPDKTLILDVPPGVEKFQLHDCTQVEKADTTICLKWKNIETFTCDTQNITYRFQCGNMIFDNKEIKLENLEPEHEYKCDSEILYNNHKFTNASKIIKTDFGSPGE

[2] = target: T2, mutant CD45 D1-D2 protein E259G, N262D (Homo sapiens, UniProt P08575 225-394, limits assumed); assay: as above
T2 chain: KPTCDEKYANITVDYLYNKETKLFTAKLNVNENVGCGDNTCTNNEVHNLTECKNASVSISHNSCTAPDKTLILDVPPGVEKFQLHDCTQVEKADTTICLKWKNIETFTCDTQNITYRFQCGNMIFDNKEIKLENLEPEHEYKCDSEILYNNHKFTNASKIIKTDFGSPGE

[3] = target: T3, mutant CD45 D1-D2 protein N263S, T264A (Homo sapiens, UniProt P08575 225-394, limits assumed); assay: as above
T3 chain: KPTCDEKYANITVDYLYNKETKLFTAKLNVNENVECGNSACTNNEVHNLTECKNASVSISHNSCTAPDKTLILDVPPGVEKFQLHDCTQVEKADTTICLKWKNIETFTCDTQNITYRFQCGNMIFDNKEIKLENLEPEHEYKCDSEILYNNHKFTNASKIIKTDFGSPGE

[4] = target: T4, mutant CD45 D1-D2 protein T266A, N267G (Homo sapiens, UniProt P08575 225-394, limits assumed); assay: as above
T4 chain: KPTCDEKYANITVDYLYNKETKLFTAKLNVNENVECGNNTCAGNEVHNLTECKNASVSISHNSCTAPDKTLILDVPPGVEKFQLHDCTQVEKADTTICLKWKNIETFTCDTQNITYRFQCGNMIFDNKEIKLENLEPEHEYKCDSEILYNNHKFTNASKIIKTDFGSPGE

[5] = target: T5, mutant CD45 D1-D2 protein I283M (Homo sapiens, UniProt P08575 225-394, limits assumed); assay: as above
T5 chain: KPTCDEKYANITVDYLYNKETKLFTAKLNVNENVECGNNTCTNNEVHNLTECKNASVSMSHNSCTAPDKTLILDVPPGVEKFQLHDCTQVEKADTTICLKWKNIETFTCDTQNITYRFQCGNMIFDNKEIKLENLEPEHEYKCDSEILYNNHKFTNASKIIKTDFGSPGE

[6] = target: T6, purified CD45 protein N257D (Homo sapiens, UniProt P08575 225-394, limits assumed); assay: biosensor; 100 nM mAb030-9 captured with Anti-Human IgG Fc Capture (AHC), 300 nM purified CD45 protein
T6 construct: Purified CD45 variant of the biosensor assay
T6 chain: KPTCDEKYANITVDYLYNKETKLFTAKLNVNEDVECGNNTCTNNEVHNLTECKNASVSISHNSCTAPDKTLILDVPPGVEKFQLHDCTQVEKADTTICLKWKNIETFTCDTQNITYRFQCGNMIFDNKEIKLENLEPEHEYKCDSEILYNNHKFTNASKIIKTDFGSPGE
Protocol: (§1) 300 nM of purified CD45 protein was contacted with the immobilized antibody. At 300 s the biosensor was placed in buffer without purified CD45 protein.

[7] = target: T7, purified CD45 protein N267S (Homo sapiens, UniProt P08575 225-394, limits assumed); assay: as above
T7 construct: Purified CD45 variant of the biosensor assay
T7 chain: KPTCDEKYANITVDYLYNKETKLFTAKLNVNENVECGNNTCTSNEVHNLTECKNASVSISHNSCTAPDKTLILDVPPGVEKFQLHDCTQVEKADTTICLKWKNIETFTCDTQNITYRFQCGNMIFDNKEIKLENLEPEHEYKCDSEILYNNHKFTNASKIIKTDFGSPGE
Protocol: as §1

[8] = target: T8, purified CD45 protein N286D (Homo sapiens, UniProt P08575 225-394, limits assumed); assay: as above
T8 construct: Purified CD45 variant of the biosensor assay
T8 chain: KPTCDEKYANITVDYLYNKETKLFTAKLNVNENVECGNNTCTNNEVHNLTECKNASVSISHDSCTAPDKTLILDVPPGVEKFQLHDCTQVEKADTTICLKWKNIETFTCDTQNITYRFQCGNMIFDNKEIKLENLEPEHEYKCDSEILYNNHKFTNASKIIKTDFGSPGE
Protocol: as §1

[9] = target: T9, purified CD45 protein E256G (Homo sapiens, UniProt P08575 225-394, limits assumed); assay: as above
T9 construct: Purified CD45 variant of the biosensor assay
T9 chain: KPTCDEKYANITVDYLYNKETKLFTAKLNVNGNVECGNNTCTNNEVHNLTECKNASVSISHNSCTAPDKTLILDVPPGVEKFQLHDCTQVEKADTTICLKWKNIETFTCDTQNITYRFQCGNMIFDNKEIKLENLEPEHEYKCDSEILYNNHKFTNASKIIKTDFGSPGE
Protocol: as §1

[10] = target: T10, purified CD45 protein N257G (Homo sapiens, UniProt P08575 225-394, limits assumed); assay: as above
T10 construct: Purified CD45 variant of the biosensor assay
T10 chain: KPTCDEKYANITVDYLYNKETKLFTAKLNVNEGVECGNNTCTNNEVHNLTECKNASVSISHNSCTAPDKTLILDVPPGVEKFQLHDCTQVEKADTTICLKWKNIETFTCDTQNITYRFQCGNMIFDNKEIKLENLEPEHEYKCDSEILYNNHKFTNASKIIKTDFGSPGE
Protocol: as §1

B1: mAb U139AGL030-9 (mAb030-9) (antibody, mouse IgG1, kappa, V domains shown)
VH: EVKLLESGGGLVQPGGSLKLSCAASGFDFSRYWMSWVRQAPGKGLEWIGEINPTSSTINFTPSLKDKVFISRDNAKNTLYLQMSKVRSEDTALYYCARGNYYRYGDAMDYWGQGTSVTVSS
VL: DIALTQSPASLAVSLGQRATISCRASKSVSTSGYSYLHWYQQKPGQPPKLLIYLASNLESGVPARFSGSGSGTDFTLNIHPVEEEDAATYYCQHSRELPFTFGSGTKLEIKR
notes: In the biosensor assay the antibody was captured with Anti-Human IgG Fc Capture (AHC); also called mAb30-9; mAb039-9
[1]
  % Mutant Binding: 44.9%
[2]
  % Mutant Binding: 2.3%
[3]
  % Mutant Binding: 122%
[4]
  % Mutant Binding: 1.4%
[5]
  % Mutant Binding: 12.9%
[6]
  response: < 0.05 nm
[7]
  response: < 0.05 nm
[8]
  response: < 0.05 nm
[9]
  response: < 0.05 nm
[10]
  response: < 0.05 nm
